Source: article PMC4131202 (2013)

Target: actin filaments (UniProt P68133)
Assay: pelleting assay

Kd: ~3000 nM
B1: End4p TLD (protein)
chain: LLNAPGENIEELVDNQLAETAQAIQQAILRLQNIAAKPKDDSLSPSELQVHDSLLSASIAITEAIARLIKAATASQAEIVAQGRGSSSRGAFYKKHNRWTEGLISAAKAVARATTTLIETADGVVNGTSSFEHLIVACNGVSAATAQLVAASRVKANFASKVQDHLEDAAKAVTEACKALVRQVESVALKAKEVQHEDFSSLGVHEYRRKEIEQQVQILKLENDLVAARRRLFDMRKTSYHVA
